Data from paper PMC3644619.

Target: hormone-binding domain (HBD) of ERα
Experiment: two-hybrid

Chain of PNRC1d (Q12796 186-327): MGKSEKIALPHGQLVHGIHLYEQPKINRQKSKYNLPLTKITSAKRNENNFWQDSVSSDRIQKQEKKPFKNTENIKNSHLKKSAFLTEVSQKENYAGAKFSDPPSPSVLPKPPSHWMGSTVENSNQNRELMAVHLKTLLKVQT
Chain of hormone-binding domain (HBD) of ERα (P03372 whole entry, the tested form may be a part): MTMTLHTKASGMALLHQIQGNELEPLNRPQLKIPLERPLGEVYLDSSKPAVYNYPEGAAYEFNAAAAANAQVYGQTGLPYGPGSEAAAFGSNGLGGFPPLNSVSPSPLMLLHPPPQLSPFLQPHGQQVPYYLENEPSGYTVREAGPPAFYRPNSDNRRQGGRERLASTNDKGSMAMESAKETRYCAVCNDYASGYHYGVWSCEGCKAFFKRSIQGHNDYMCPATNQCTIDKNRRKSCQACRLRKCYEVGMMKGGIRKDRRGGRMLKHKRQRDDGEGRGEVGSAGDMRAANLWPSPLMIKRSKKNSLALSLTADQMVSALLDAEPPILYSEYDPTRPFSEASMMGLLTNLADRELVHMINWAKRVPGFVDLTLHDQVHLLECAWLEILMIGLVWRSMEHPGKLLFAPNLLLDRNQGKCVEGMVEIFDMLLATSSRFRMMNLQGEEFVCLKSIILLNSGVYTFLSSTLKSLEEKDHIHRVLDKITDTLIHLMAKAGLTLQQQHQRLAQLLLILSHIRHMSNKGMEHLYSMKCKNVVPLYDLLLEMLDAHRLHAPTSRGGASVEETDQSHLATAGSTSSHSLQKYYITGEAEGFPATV

- fold increase of affinity compared to fl PNRC (two-hybrid β-galactosidase): > 10 fold
Substance: PNRC1d (from UniProt Q12796 186-327) (natural protein)
